Assay results published in patent US9102922B2, “Trehalose phosphorylases and their use in the biocatalytic production of trehalose-analogues and glycosyl phosphates” (Universiteit Gent, priority 2010, dated 2015).
Where a chain is given by its changes, count along the chain named. Names may count otherwise.

B1: TP from C. pacificum (Caldanaerobacter subterraneus subsp. tengcongensis MB4) (protein)
chain: MDMVKKTKKPIYPFEDWTIRETEFSIETNYRNETIFAQANGYMGMRGNFEEGYSGPDGTSLKGTYINGFYEIHDIIYPEGGYGFAKTGQTMLNVADSKIIELYVGEEKFDLLKGKIHFYERVLDMKKGCVERKIKWESPSGKIVNVKIKRIVSLQRQHLAVISFSVEPVNFTGNIKFVSAIDGDVRNITESEDVRVGSNLKGRVLETVERGTNGFEGWISQKTQKSNLSYTCAMKNELIGTEKYEVLNNVKEDRVEVAVAFKAEKNRVYILNKFISYYTSKDCDKSETMKLALEEVRRAQEDGFCKIEKEQEEFLQSFWEDADVVIEGDKALQQGIRFNMFHLLQSVGRDGKTNIAAKGLTGEGYEGHYFWDSDIYILPFFLYTKPEIAKALIMYRYNLLDAARNRAKELGHKGALYPWRTIDGPECSAYFPAGTAQYHINADIVYALKKYVEATNDLDFLYDYGCEIVFETARFWEDLGAYIPLKGNKFCINTVTGPDEYTALVDNNAYTNYMAKMNLEYAYDIANKMKKEVPEKYQKVASKLNLKDEEIASWKRAANNMYLPYSEELDIIPQDDSFLYKERITVDEIPEDQFPLLLHWHYLNIYRYQICKQPDVLLLMFLQREKFTIEQLKKNFDYYEPITTHDSSLSPAIFSILANEIGYTDKAYKYFMMTARMDLDDYNDNVKDGIHAAAMAGSWSAVVNGFGGMRVYTDELHFTPGLPEGWKMLSFNVKYKGRKINVKLTHEESVFTLLEGEPIEIFYFDRRVLIKSGENILKGYEEK
B2: K450N: CsTP with mutation K450N (protein, listed as Caldanaerobacter subterraneus)
chain: B1 chain with K450N

Legend:
[1] = substrate: OC[C@H]1OC(O)[C@H](O)[C@@H](O)[C@@H]1O; test: Synthetic activity of TP on monosaccharide acceptors (released phosphate, molybdate assay); type: biochemical, Carboxydibrachium pacificum; conditions: other: 60° C. and pH 6
[2] = Donor specificity: phosphorolysis of lactotrehalose by CsTP variants (release of βGal1P and βGlc1P); type: biochemical
[3] = Kinetic parameters of TP variants on galactose as acceptor; type: biochemical; conditions: Gal as acceptor; 60° C. and pH 6
Experimental: (§1) […] The synthetic activity of the enzyme was determined using a discontinuous assay in which the released phosphate is complexed by molybdate and ascorbic acid (Gawronski and Benson, 2004). […] Site-saturation mutagenesis was performed with degenerate primers (NNK) as described by […] et al. (2008), and random mutagenesis was performed with the GeneMorph II EZClone Domain Mutagenesis Kit (Stratagene) according to the manufacturer's instructions. The resulting DNA libraries were transformed into E. coli XL10-Gold, after which the cells were grown on solid LB medium in a Petri dish. Colonies were then transferred to 96-well microtiter plates containing liquid LB medium, in which enzyme expression was induced. Enzyme was extracted by the addition of lysis buffer with a liquid handling robot (Freedom EVO 200, Tecan) and the crude cell extracts were used for enzyme screening. Acceptor screening was performed with the phosphomolybdate assay described above. […] The clones with the highest activity were sequenced to identify the introduced mutations. The improved enzyme variants were then produced and purified as described for the wild-type enzyme, to allow a more detailed characterization.

[4] = Phosphorolytic activity of the enzyme: specific activity, optimal pH and temperature; type: biochemical
Experimental: The phosphorolytic activity of the enzyme was determined using a discontinuous assay in which the released glucose is converted by glucose oxidase and peroxidase (GOD-POD)(Werner et al., 1970). The activity was assayed in 30 mM phosphate buffer at pH 7 and 60° C., using 30 mM disaccharide as substrate. The synthetic activity of the enzyme was determined using a discontinuous assay in which the released phosphate is complexed by molybdate and ascorbic acid (Gawronski and Benson, 2004). The activity was assayed in 50 mM MES buffer at pH 6 and 60° C., using 30 mM β-glucose-1-phosphate as donor and 500 mM of acceptor substrates.

[5] = Thermostability of the enzyme (residual activity after incubation); type: physicochemical; conditions: 1 hour incubation at 65° C.
[6] = Kinetic parameters of TP variants on glucose as acceptor; type: biochemical; conditions: Glc as acceptor; 60° C. and pH 6
Experimental: as §1

[7] = Specific activity of TP variant on mannose as acceptor; type: biochemical; conditions: compared with wild-type CsTP
Experimental: The activity was assayed in 30 mM phosphate buffer at pH 7 and 60° C., using 30 mM disaccharide as substrate. The synthetic activity of the enzyme was determined using a discontinuous assay in which the released phosphate is complexed by molybdate and ascorbic acid (Gawronski and Benson, 2004). […] Site-saturation mutagenesis was performed with degenerate primers (NNK) as described by […] et al. (2008), and random mutagenesis was performed with the GeneMorph II EZClone Domain Mutagenesis Kit (Stratagene) according to the manufacturer's instructions. The resulting DNA libraries were transformed into E. coli XL10-Gold, after which the cells were grown on solid LB medium in a Petri dish. Colonies were then transferred to 96-well microtiter plates containing liquid LB medium, in which enzyme expression was induced. Enzyme was extracted by the addition of lysis buffer with a liquid handling robot (Freedom EVO 200, Tecan) and the crude cell extracts were used for enzyme screening. Acceptor screening was performed with the phosphomolybdate assay described above. […] The clones with the highest activity were sequenced to identify the introduced mutations. The improved enzyme variants were then produced and purified as described for the wild-type enzyme, to allow a more detailed characterization.

[8] = 100 mM lactotrehalose, pH 7 and 60° C.

| Molecule | Km [1] | kcat [1] | kcat/Km [1] | donor preference in phosphorolysis of lactotrehalose [2] | Ratio βGal1P/βGlc1P [2, 8] | Release of βGal1P [2, 8] | Release of βGlc1P [2, 8] | kcat [3] | optimal pH for phosphorolytic activity [4] | optimal temperature for phosphorolytic activity [4] | specific activity ([4]; phosphorolysis of trehalose) | activity retained after incubation [5] | Km [6] | kcat [6] | change in specific activity on mannose as acceptor [7] |
| --- | --- | --- | --- | --- | --- | --- | --- | --- | --- | --- | --- | --- | --- | --- | --- |
| B1 | 3.5 ± 0.7 mM | 59 ± 5.4 s⁻¹ | 17000 ± 4000 M⁻¹ s⁻¹ | almost exclusively produces β-Glc1P | 0.04 | 0.13 U/mg | 3.0 U/mg | 54 s⁻¹ | 7 | 80 °C | 39.8±3.5 U/mg | 100% | 3.5 mM | 59 s⁻¹ |  |
| B2 |  |  |  |  |  |  |  |  |  |  |  |  |  |  | significantly increases |
